Test results reported in publication PMC8251803.

Target: cytochrome c oxidase from Aquifex aeolicus (AaCcO), protomer of subunits CoxA2, CoxB2 and IIa (Aquifex aeolicus) (UniProt O67937)
Assay: cryo-EM structure; single-particle cryo-EM with 3D classification (RELION) of the sample purified from native A. aeolicus membranes by anion exchange and size-exclusion chromatography; fractions with a dominant band around 242 kDa in Blue Native PAGE; two classes of particles (dimeric complex III, dimeric AaCcO); AaCcO dimer at 3.4 Å

cytochrome c oxidase from Aquifex aeolicus (AaCcO), protomer of subunits CoxA2, CoxB2 and IIa (from UniProt O67937 1-592) (complex)
stoichiometry N: 2
